{"source": "patent US12329806B2", "about": "“Compound for modulating rlr, tlr, oas and/or oncostatin m pathways, use thereof for preparing a medicine, composition, method for modulating said pathways and method of treatment” (Instituto Butantan, priority 2018, dated 2025)", "molecules": {"B1": {"name": "Amblyomin-X: recombinant Kunitz type protein identified in a cDNA library of Amblyomma sculptum tick salivary glands (protein)", "chain": "MRQLAVLALVIFTGMCVESQSANSKAVCNLPKLAGDETCSNKTEIRWYYNGTACEAFIFKGCGGNDNNFDRVDDCQRLCEEQTHFHFESPKLICFKVQDYWILNDIMKKNLTGISLKSEEEDADSGEID", "modifications": "Amblyomin-X", "notes": "recombinant Kunitz type protein identified in a cDNA library of Amblyomma sculptum tick salivary glands"}}, "assay_in_all_cases": "Cell viability tests (survival rate), previous experiment", "settings_in_all_cases": "rounded values", "key": {"Mia-PaCa-2 cells": {"system": "Mia-PaCa-2 cells", "format": "cell-based, human", "text": "(§1) ER stress also promotes mitochondrial dysfunction, Cytochrome c release, PARP cleavage, Ca+^2 mobilization and caspase activation in SK-MEL-28 and Mia-PaCa-2 cells, positively regulating CASP3. The survival rate of the previous experiment, calculated using cell viability tests, is herein summarized: Mia-PaCa-2 67%, SK-MEL-28 44%, SK-MEL-5 42%, non-tumoral human fibroblasts 100% (rounded values). These numbers indicate that part of the cells possibly survives through a positive unfolded protein response (UPR) and part dies. […] Furthermore, autophagy could also be evoked to recover a global tissue homeostasis, and, in this case, there is the signature of immunogenic cell death (ICD). It is believed that the ICD could explain this."}, "SK-MEL-28 cells": {"system": "SK-MEL-28 cells", "format": "cell-based, human", "text": "as §1"}, "SK-MEL-5": {"system": "SK-MEL-5", "format": "cell-based", "text": "as §1"}, "[1]": {"system": "non-tumoral human fibroblasts", "format": "cell-based", "text": "as §1"}}, "data": [{"molecule": "B1", "values": [{"measurement": "survival rate", "setting": "Mia-PaCa-2 cells", "value": 67, "unit": "%"}, {"measurement": "survival rate", "setting": "SK-MEL-28 cells", "value": 44, "unit": "%"}, {"measurement": "survival rate", "setting": "SK-MEL-5", "value": 42, "unit": "%"}, {"measurement": "survival rate", "setting": "[1]", "value": 100, "unit": "%"}]}]}
